Results reported in patent US20060153840A1.

Target: UNC5H2 on human umbilical artery endothelial cells (HUAEC) (human) (UniProt Q8IZJ1)
Assay: cell-based or functional assay

Chain of UniProt Q8IZJ1 (Q8IZJ1 other isoform, or with tags, fused parts or gaps limits assumed): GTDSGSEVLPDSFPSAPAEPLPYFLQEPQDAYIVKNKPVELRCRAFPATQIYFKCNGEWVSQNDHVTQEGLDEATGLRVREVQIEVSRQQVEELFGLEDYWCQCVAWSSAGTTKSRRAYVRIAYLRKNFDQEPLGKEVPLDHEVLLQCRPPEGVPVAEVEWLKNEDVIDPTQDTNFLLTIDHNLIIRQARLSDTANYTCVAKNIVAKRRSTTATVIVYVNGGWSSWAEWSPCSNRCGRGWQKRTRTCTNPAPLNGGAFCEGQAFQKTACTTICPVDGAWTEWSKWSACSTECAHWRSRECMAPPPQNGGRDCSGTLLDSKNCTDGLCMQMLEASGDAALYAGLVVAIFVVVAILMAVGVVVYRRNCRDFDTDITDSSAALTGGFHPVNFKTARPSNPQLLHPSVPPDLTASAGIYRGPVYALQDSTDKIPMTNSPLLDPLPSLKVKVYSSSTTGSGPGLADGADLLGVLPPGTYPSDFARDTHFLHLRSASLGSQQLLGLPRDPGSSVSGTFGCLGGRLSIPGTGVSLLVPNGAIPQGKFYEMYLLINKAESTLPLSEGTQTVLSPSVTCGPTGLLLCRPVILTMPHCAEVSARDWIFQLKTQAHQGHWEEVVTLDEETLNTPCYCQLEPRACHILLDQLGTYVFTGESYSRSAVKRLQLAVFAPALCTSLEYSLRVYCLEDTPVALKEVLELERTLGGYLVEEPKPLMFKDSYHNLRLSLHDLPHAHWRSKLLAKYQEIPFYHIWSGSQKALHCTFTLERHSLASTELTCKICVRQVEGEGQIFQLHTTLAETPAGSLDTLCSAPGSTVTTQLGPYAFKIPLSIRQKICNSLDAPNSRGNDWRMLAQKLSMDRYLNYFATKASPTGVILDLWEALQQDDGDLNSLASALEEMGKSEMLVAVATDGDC

decrease in transwell migration of HUAEC: 40%
Substance: Netrin-1 secreted by stably transfected 293 cells (ligand)
